Patent US6566080 (NEW ENGLAND MEDICAL CENTER HOSPITALS, dated 2003)
Ends that are not written are not given here.

B1: Gastrin I (unsulphated gastrin-17) (peptide, UniProt P01350 76-92, looked up)
peptide: QGPWLEEEEEAYGWMDF
modifications: not fully specified (residue 1, C-terminus)
notes: domain: gastrin-17
B2: sulfated CCK-8 (CCK-8s) (peptide, UniProt P06307 96-103, looked up)
peptide: DYMGWMDF
modifications: not fully specified (residue 2, C-terminus)

Columns and labels:
[1] = target: T1, wild-type human CCK-B/gastrin receptor (human, UniProt P32239 1-447); experiment: cell-based or functional assay
T1 sequence: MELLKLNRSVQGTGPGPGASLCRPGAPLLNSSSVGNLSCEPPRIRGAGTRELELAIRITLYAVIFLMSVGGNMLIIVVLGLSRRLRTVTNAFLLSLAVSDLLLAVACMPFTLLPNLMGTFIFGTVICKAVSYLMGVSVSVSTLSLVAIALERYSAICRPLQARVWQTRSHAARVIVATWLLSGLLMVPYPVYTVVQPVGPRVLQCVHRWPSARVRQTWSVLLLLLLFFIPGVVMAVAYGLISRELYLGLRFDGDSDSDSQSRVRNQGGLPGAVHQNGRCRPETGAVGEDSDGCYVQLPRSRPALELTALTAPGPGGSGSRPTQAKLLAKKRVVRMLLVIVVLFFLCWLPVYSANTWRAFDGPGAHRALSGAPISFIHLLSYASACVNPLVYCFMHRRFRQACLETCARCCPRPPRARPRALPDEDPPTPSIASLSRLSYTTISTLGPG

[2] = target: T2, constitutively active human CCK-B/gastrin receptor mutant MH162 (^325L→E) (human, UniProt P32239 1-447); experiment: cell-based or functional assay
T2 sequence: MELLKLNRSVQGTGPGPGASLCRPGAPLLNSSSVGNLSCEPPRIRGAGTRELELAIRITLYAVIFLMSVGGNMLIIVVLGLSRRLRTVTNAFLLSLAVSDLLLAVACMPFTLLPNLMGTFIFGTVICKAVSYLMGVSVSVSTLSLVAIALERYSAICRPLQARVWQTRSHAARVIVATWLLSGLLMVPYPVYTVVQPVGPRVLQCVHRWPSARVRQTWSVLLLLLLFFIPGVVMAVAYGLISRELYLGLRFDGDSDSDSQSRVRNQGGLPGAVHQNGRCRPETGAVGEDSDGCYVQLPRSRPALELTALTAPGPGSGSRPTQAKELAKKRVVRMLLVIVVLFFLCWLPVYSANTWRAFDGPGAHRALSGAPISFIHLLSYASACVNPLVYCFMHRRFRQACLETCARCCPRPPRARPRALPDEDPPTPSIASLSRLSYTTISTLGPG

[3] = target: T1, wild-type human CCK-B/gastrin receptor; experiment: ^125I-CCK-8 competition binding on transfected COS-7 cells
[4] = target: T2, constitutively active human …; experiment: as above
[5] = target: T1, wild-type human CCK-B/gastrin receptor; experiment: ^125I-CCK-8 competition binding on COS-7 cells transfected with hCCK-B-pcDNAI
Protocol: (§1) COS-7 cells (1.5 ×10^6) were plated in 10-cm culture dishes (Nunc) and grown in Dulbecco's modified Eagle's medium containing 10% fetal calf serum in a 5% CO_2, 95% air incubator at 37° C. After an overnight incubation, cells were transfected (Pacholczyk et al., *Nature* 350:350–354, 1991) with 5–7 μg of a pcDNA I expression vector containing hCCKB (HCCKB-pcDNA I). Twenty-four hours after transfection cells were split into 24-well dishes (2 ×10^4 cells/well) (Costar). After an additional 24 hours, competition binding experiments were performed in Hank's buffer supplemented with 25 mM phenylmethylsulfonyl fluoride (PMSF). […] Equilibrium binding occurred after incubation for 80 min. at 37° C. Cell monolayers were then washed three times, hydrolyzed in 1 N NaOH, and the amount of radioactivity to the receptor was quantified. […] All binding experiments were repeated three to five times.
(§2) The competition data were analyzed using computer software which is specifically designed for the purpose of radioligand binding assays (Inplot 4.0, GraphPad, San Diego, Calif.). Analyses of competition and saturation binding data can also be performed using computerized non-linear curve fitting (McPherson, G. A., *J Pharmacol Methods*, 14:213–28, 1985).

[6] = target: T2, constitutively active human …; experiment: ^125I-CCK-8 competition binding; Ki at wild-type receptor over Ki at MH162
Protocol: as §1, §2

[7] = target: T3, wild-type rat CCK-A receptor (rat, UniProt P30551 1-444); experiment: cell-based or functional assay
T3 sequence: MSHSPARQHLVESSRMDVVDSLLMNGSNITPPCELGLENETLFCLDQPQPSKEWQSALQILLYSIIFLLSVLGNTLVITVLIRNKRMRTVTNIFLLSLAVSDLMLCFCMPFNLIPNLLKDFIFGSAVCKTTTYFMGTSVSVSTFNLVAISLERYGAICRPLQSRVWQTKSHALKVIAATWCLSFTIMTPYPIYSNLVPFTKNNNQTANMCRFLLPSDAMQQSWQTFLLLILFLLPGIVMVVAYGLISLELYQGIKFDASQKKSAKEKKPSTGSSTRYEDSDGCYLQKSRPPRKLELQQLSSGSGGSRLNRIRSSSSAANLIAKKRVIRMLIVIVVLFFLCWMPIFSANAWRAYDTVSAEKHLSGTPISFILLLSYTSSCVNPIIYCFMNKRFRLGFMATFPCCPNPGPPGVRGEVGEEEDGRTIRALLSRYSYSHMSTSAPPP

Binder | Signaling potencies of tested ligands, IC50 [1] [nm] | Signaling potencies of tested ligands, IC50 [2] [nm] | Signaling potencies, Ratio (Wild-type/Mutant) [2] | Ki [3] [nM] | Ki [4] [nM] | IC50 [5] [nM] | Ratio (Wild-type/Mutant) of Ki [6] | CCK-8s stimulated (% human basal) inositol phosphate production [7] [% human basal]
B1 | 0.24 | 0.2 | 1.2 | 1.35 | 0.8 | 0.94 | 1.69 | 
B2 |  |  |  |  |  |  |  | 684
